Reference: article PMC8319186, “Mitochondrial adaptor TRAK2 activates and functionally links opposing kinesin and dynein motors” (Nature Communications, 2021)

B1: Halo-TRAK2 [not stated] / Myc-KIF5B [mouse] (parent complex)
chain 1: MSQSQNAIFTSPTGEENLMNSNHRDSESITDVCSNEDLPEVELVSLLEEQLPQYRLKVDTLFLYENQDWTQSPHQRQHASDALSPVLAEETFRYMILGTDRVEQMTKTYNDIDMVTHLLAERDRDLELAARIGQALLKRNHVLSEQNESLEEQLGQAFDQVNQLQHELCKKDELLRIVSIASEESETDSSCSTPLRFNESFSLSQGLLQLEMLQEKLKELEEENMALRSKACHIKTETVTYEEKEQQLVSDCVKELRETNAQMSRMTEELSGKSDELIRYQEELSSLLSQIVDLQHKLKEHVIEKEELKLHLQASKDAQRQLTMELHELQDRNMECLGMLHESQEEIKELRSRSGPTAHLYFSQSYGAFTGESLAAEIEGTMRKKLSLDEESSLFKQKAQQKRVFDTVRIANDTRGRSISFPALLPIPGSNRSSVIMTAKPFESGLQQTEDKSLLNQGSSSEEVAGSSQKMGQPGPSGDSDLATALHRLSLRRQNYLSEKQFFAEEWQRKIQVLADQKEGVSGCVTPTESLASLCTTQSEITDLSSASCLRGFMPEKLQIVKPLEGSQTLYHWQQLAQPNLGTILDPRPGVITKGFTQLPGDAIYHISDLEEDEEEGITFQVQQPLEVEEKLSTSKPVTGIFLPPITSAGGPVTVATANPGKCLSCTNSTFTFTTCRILHPSDITQVTPSSGFPSLSCGSSGSSSSNTAVNSPALSYRLSIGESITNRRDSTTTFSSTMSLAKLLQERGISAKVYHSPISENPLQPLPKSLAIPSTPPNSPSHSPCPSPLPFEPRVHLSENFLASRPAETFLQEMYGLRPSRNPPDVGQLKMNLVDRLKRLGIARVVKNPGAQENGRCQEAEIGPQKPDSAVYLNSGSSLLGGLRRNQSLPVIMGSFAAPVCTSSPKMGVLKED
chain 2: MADPAECNIKVMCRFRPLNESEVNRGDKYVAKFQGEDTVMIASKPYAFDRVFQSSTSQEQVYNDCAKKIVKDVLEGYNGTIFAYGQTSSGKTHTMEGKLHDPEGMGIIPRIVQDIFNYIYSMDENLEFHIKVSYFEIYLDKIRDLLDVSKTNLSVHEDKNRVPYVKGCTERFVCSPDEVMDTIDEGKSNRHVAVTNMNEHSSRSHSIFLINVKQENTQTEQKLSGKLYLVDLAGSEKVSKTGAEGAVLDEAKNINKSLSALGNVISALAEGSTYVPYRDSKMTRILQDSLGGNCRTTIVICCSPSSYNESETKSTLLFGQRAKTIKNTVCVNVELTAEQWKKKYEKEKEKNKTLRNTIQWLENELNRWRNGETVPIDEQFDKEKANLEAFTADKDIAITSDKPAAAVGMAGSFTDAERRKCEEELAKLYKQLDDKDEEINQQSQLVEKLKTQMLDQEELLASTRRDQDNMQAELNRLQAENDASKEEVKEVLQALEELAVNYDQKSQEVEDKTKEYELLSDELNQKSATLASIDAELQKLKEMTNHQKKRAAEMMASLLKDLAEIGIAVGNNDVKQPEGTGMIDEEFTVARLYISKMKSEVKTMVKRCKQLESTQTESNKKMEENEKELAACQLRISQHEAKIKSLTEYLQNVEQKKRQLEESVDSLGEELVQLRAQEKVHEMEKEHLNKVQTANEVKQAVEQQIQSHRETHQKQISSLRDEVEAKEKLITDLQDQNQKMVLEQERLRVEHERLKATDQEKSRKLHELTVMQDRREQARQDLKGLEETVAKELQTLHNLRKLFVQDLATRVKKSAEVDSDDTGGSAAQKQKISFLENNLEQLTKVHKQLVRDNADLRCELPKLEKRLRATAERVKALESALKEAKENASRDRKRYQQEVDRIKEAVRSKNMARRGHSAQIAKPIRPGQHPAASPTHPGTVRGGGSFVQNNQPVGLRGGGGKQS

Variants of: B1
Experiment: co-immunoprecipitation (Halo antibody IP, western blot quantification); extracts from COS-7 cells transfected with Myc-KIF5B and Halo-tagged constructs; mean ± s.d. from three independent experiments; parent: 0.65; read off a plot

| Variant | response |
| --- | --- |
| chain 1 I132D | ~0.6 |
| chain 1 A129V, chain 1 A130V | ~0.61 |
